In the supplement of paper PMC12667976:
± gives the standard error.

B1: library; numbered along this chain (parent)
chain: MATDAALRRLLRLHRTEIAVAVDSAFPLLHALADHDVVPEDKFQETLHLKEKEGCPQAFHALLSWLLTQDSTAILDFWRVLFKDYNLERYGRLQPILDSFPKDVDLSQPRKGRKPPAVPKALVPPPRLPTKRKASEEARAAAPAALTPRGTASPGSQLKAKPPKKPESSAEQQRLPLGNGIQTMSASVQRAVAMSSGDVPGARGAVEGILIQQVFESGGSKKCIQVGGEFYTPSKFEDSGSGKNKARSSSGPKPLVRAKGAQGAAPGGGEARLGQQGSVPAPLALPSDPQLHQKNEDECAVCRDGGELICCDGCPRAFHLACLSPPLREIPSGTWRCSSCLQATVQEVQPRAEEPRPQEPPVETPLPPGLRSAGEEVRGPPGEPLAGMDTTLVYKHLPAPPSAAPLPGLDSSALHPLLCVGPEGQQNLAPGARCGVCGDGTDVLRCTHCAAAFHWRCHFPAGTSRPGTGLRCRSCSGDVTPAPVEGVLAPSPARLAPGPAKDDTASHEPALHRDDLESLLSEHTFDGILQWAIQSMARPAAPFPS

Variants of: B1
Test: AIRE transcriptional activation functional score (insulin promoter-GFP; nonsense median 0, synonymous median 1) (normalised score); higher = higher AIRE activity (more reporter activation)
Conditions: with insulin promoter-GFP reporter in HEK293
Procedure, shortened: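 Codon-optimized AIRE NNN-codon libraries (three regions) were integrated by Bxb1 recombinase into Flp-In T-REx HEK293 landing-pad cells carrying an insulin core promoter-GFP reporter. Integrants (mCherry+, BFP−) sorted at day 7 were expanded 7 days; top 10% GFP and unselected integrant populations were tile-sequenced. Functional score is select versus non-select variant enrichment, wild-type subtracted. Variants needed 10 counts per million in non-select; scores were rescaled to nonsense median 0 and synonymous median 1, then averaged over biological replicates.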

Variant	AIRE transcriptional activation functional score
Q358S	1.04 ± 0.18
Q358W	1.27 ± 0.13
Q358T	0.929 ± 0.26
Q358N	1.18 ± 0.22
Q358Y	1.04 ± 0.092
Q358R	1.17 ± 0.2
Q358M	1.12 ± 0.088
Q358V	1.07 ± 0.28
Q358P	1.05 ± 0.21
G369Y	0.617 ± 0.046
G369Q	1.43 ± 0.18
G369S	0.939 ± 0.38
G369R	0.772 ± 0.1
G369A	0.861 ± 0.17
G369I	1.18 ± 0.37
G369K	1.35 ± 0.088
G369V	0.854 ± 0.23
G369W	0.914 ± 0.18
G369L	1.46 ± 0.17
G369N	1.1 ± 0.061
G369T	0.912 ± 0.61
G369F	1.46 ± 0.06
G369E	1.68 ± 0.059
G369D	-0.344 ± 0.25

Variant	AIRE transcriptional activation functional score
G369C	1.25 ± 0.12
G374P	1.1 ± 0.11
G374D	0.16 ± 0.23
G374A	1.33 ± 0.14
G374T	0.972 ± 0.39
G374W	1.65 ± 0.042
G374R	1.31 ± 0.35
G374L	1.29 ± 0.14
G374I	1.18 ± 0.31
G374K	0.524 ± 0.58
G374V	1.07 ± 0.13
G374F	2.03 ± 0.12
G374H	0.816 ± 0.16
G374S	1.24 ± 0.3
G374Y	0.519 ± 0.61
G374C	1.55 ± 0.21
E359W	1.24 ± 0.06
E359K	0.82 ± 0.099
E359H	0.97 ± 0.34
E359Y	1.11 ± 0.12
E359P	0.935 ± 0.33
E359N	0.928 ± 0.13
E359T	0.92 ± 0.23
E359S	1.27 ± 0.24

Variant	AIRE transcriptional activation functional score
E359R	1.02 ± 0.24
E359D	0.954 ± 0.056
E359G	1.02 ± 0.18
E359L	1.01 ± 0.22
E359M	1.08 ± 0.08
E359A	0.785 ± 0.2
E359Q	0.92 ± 0.11
E359V	1.08 ± 0.24
E359F	1.18 ± 0.14
E359I	1.14 ± 0.21
E359C	1.11 ± 0.15
V362R	1.14 ± 0.17
V362I	1.32 ± 0.12
V362Y	1.31 ± 0.2
V362K	1.11 ± 0.1
V362A	1.13 ± 0.15
V362D	1.3 ± 0.19
V362L	0.999 ± 0.16
V362S	1.07 ± 0.23
V362F	0.981 ± 0.12
V362Q	1.16 ± 0.28
V362P	0.988 ± 0.16
V362E	1.07 ± 0.17
V362C	0.914 ± 0.096

Variant	AIRE transcriptional activation functional score
V362N	1.3 ± 0.081
V362G	1.02 ± 0.17
V362W	1.24 ± 0.036
V362H	0.807 ± 0.3
V362M	-0.739 ± 0.14
V362T	0.915 ± 0.16
E375N	1.89 ± 0.1
E375Q	1.05 ± 0.13
E375R	1 ± 0.32
E375D	1.04 ± 0.11
E375K	1.35 ± 0.14
E375T	0.785 ± 0.1
E375H	1.6 ± 0.037
E375A	1.18 ± 0.045
E375F	1.55 ± 0.084
E375V	1.47 ± 0.34
E375Y	1.51 ± 0.059
E375C	0.539 ± 0.2
E375S	0.907 ± 0.36
E375L	1.47 ± 0.35
E375P	1.21 ± 0.16
E375I	1.08 ± 0.42
E375G	0.999 ± 0.19
T364M	1.64 ± 0.12

Variant	AIRE transcriptional activation functional score
T364H	1.07 ± 0.46
T364N	0.588 ± 0.082
T364E	0.981 ± 0.17
T364I	0.829 ± 0.27
T364L	1.22 ± 0.37
T364A	0.985 ± 0.21
T364Q	0.914 ± 0.26
T364Y	1.11 ± 0.28
T364F	0.115 ± 0.34
T364S	0.643 ± 0.38
T364V	0.952 ± 0.28
T364K	0.737 ± 0.18
T364P	0.694 ± 0.36
T364G	0.32 ± 0.29
T364R	0.983 ± 0.45
T364D	0.191 ± 0.15
T364W	1.73 ± 0.03
A373L	0.776 ± 0.5
A373K	1.02 ± 0.2
A373T	1.63 ± 0.12
A373W	-0.241 ± 0.043
A373D	1.02 ± 0.22
A373H	1.23 ± 0.066
A373G	0.987 ± 0.39

Variant	AIRE transcriptional activation functional score
A373V	0.766 ± 0.28
A373I	0.836 ± 0.18
A373P	1.13 ± 0.15
A373F	0.264 ± 0.082
A373E	1.28 ± 0.12
A373S	0.969 ± 0.32
A373R	0.736 ± 0.065
L366E	1.32 ± 0.051
L366W	1.29 ± 0.11
L366V	0.996 ± 0.18
L366P	1.13 ± 0.35
L366Q	0.884 ± 0.12
L366M	0.554 ± 0.07
L366T	1.17 ± 0.07
L366A	0.656 ± 0.12
L366R	1.1 ± 0.16
L366F	1.02 ± 0.096
L366D	0.846 ± 0.22
L366H	1.21 ± 0.13
L366I	0.894 ± 0.15
L366G	0.607 ± 0.32
L366S	0.837 ± 0.26
L366Y	0.821 ± 0.081
L366K	1.37 ± 0.08

Variant	AIRE transcriptional activation functional score
L366C	0.406 ± 0.69
L366N	0.777 ± 0.071
S372I	0.653 ± 0.77
S372E	1.3 ± 0.15
S372W	1.62 ± 0.065
S372C	1.31 ± 0.069
S372P	1.07 ± 0.29
S372A	1.16 ± 0.27
S372N	1.2 ± 0.039
S372D	1.06 ± 0.14
S372H	1.13 ± 0.12
S372F	1.02 ± 0.32
S372R	1.16 ± 0.086
S372L	0.938 ± 0.21
S372K	1.48 ± 0.092
S372Y	1.25 ± 0.4
S372V	1.33 ± 0.1
S372T	0.951 ± 0.35
S372G	0.89 ± 0.1
P365D	0.214 ± 0.23
P365L	1.07 ± 0.28
P365Q	0.92 ± 0.13
P365A	1.05 ± 0.15
